Reference: US20140045211A1 (University of California, published 2014)

Experiments:
[1] = target: T1, CCR1 on HEK293 cells / HEK293 membranes stably expressing CCR1 (UniProt P32246 1-355, limits assumed); assay: SPA competition assay, HEK293 cells/membranes expressing CCR1; competitor (tracer) 125I-CCL3
T1 construct: whole, on cells; also called chemokine receptor CCR1
T1 sequence (looked up): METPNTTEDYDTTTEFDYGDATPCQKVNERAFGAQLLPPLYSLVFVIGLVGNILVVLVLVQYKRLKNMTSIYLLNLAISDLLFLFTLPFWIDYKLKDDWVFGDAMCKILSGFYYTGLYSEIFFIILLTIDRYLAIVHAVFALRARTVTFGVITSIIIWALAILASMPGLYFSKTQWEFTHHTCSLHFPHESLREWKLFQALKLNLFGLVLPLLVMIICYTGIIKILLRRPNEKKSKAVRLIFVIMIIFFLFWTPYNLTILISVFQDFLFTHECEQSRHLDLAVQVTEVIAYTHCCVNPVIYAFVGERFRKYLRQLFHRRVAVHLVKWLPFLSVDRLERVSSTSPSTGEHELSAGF
Procedure: (§1) Scintillation proximity assay (SPA) binding assays (GE Healthcare, Piscataway, N.J.) were conducted essentially as previously described. HEK293 cells stably expressing CCR1 were used for these assays, and untransfected HEK293 cells were used as a control. Assays were undertaken in a 96-well plate format and each data point was assayed in triplicate on a Microbeta plate counter (Perkin Elmer) for 1 min per well. Each well contained 20,000 cells, 0.2 mg WGA-PVT-SPA beads, increasing concentrations of unlabeled competitor chemokine, and either […] ¹²⁵I-CCL3 or […] ¹²⁵I-Streptavidin +400 pM CCL3-Biotin, in a total volume of 100 μL. IC₅₀ values were obtained by nonlinear regression curve fitting using Prism software (GraphPad, La Jolla, Calif.).
(§2) In order to test the use of ¹²⁵I-streptavidin as a surrogate radiolabel in a chemokine SPA assay, competition assays using membranes containing the chemokine receptor CCR1 were performed. CCL3 was used for these assays because ¹²⁵I-CCL3 is commercially available, allowing for a direct comparison. After immobilization of membranes to SPA beads, either radiolabeled chemokine, or a combination of biotinylated chemokine and ¹²⁵I-labeled streptavidin was added. […] In contrast, no binding of CCL3 or competition with CCL14 was observed when CCR1-expressing membranes were replaced with untransfected HEK293 membranes. […]

[2] = target: T1, CCR1 on HEK293 cells / HEK293 membranes …; assay: SPA competition assay, HEK293 cells/membranes expressing CCR1; competitor (tracer) CCL3-biotin with 125I-streptavidin
Procedure: as §1, §2

B1: CCL14 (unlabeled; functional form containing residues 9-74) (ligand)
chain: GPYHPSECCFTYTTYKIPRQRIMDYYETNSQCSKPGIVFITKRGHSVCTNPSDKWVQDYIKDMKEN
notes: Whether the entry is already trimmed to 9-74 is so no residue range is applied; Expressed as a His-ubiquitin fusion and cleaved with Usp2-cc to leave the native N-terminus; also called CCL14/HCC-1; HCC-1 (9-74)
- IC50 [1]: 2.6 nM
- IC50 [2]: 0.9 nM
